B1: Azoarcus group I ribozyme (parent)
chain: GUGCCUUGCGCCGGGAAACCACGCAAGGGAUGGUGUCAAAUUCGGCGAAACCUAAGCGCCCGCCCGGGCGUAUGGCAACGCCGAGCCAAGCUUCGGCGCCUGCGCCGAUGAAGGUGUAGAGACUAGACGGCACCCACCUAAGGCAAACGCUAUGGUGAAGGCAUAGUCCAGGGAGUGGCGAAAGUCACACAAACCGG

Variants of: B1
Assay: reverse-splicing fitness (ratio to wild type); higher = more active; in vitro selection; Mg2+ level not given
Summary of the method: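 An in vitro group I ribozyme library with randomized positions was T7-transcribed and gel-purified. In triplicate, 10 pmol RNA in EPPS pH 7.5 was reacted with 50 pmoles of a 30-nt RNA substrate for 1 h at 37 °C across several added MgCl2 levels (1–48 mM), then stopped with EDTA. Products were reverse transcribed from a substrate-complementary primer, PCR-amplified and sequenced (HiSeq 4000). Fitness is a variant's read proportion after selection over that before, normalised to wild type.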

| Variant | reverse-splicing fitness |
| --- | --- |
| GUGCCUUGCGCCGGGAAACCACGCAAGGGAUGGUGUCAAAUUCGGCGAAACCUAAGCGCCCGCCCGGGCGUAUGGCAACGCUGAGCCAAGCUUCGGCGCCUGCGCCGAUGGAGGUGUAGCGACUAGACGGCACCCACCUAAGGCAAACGUUAUGGUGAAGGCAUAGUCAAGGGAGCGGCGAAAGUCACACAAACCGG | 0.011 |
| GUGCCUUGCGCCGGGAAACCACGCAAGGGAUGGUGUCAAAUUCGGCGAAACCUAAGCGCCCGCCCGGGCGUAUGGCAACGCUGAGCCAAGCUUCGGCGCCUGCGCCGAUGGAGGUGUAGCGACUAGACGGCACCCACCUAAGGCAAACGUUAUGGUGAAGGCAUAGUCAAGGGAGAGGCGAAAGUCACACAAACCGG | 0.0164 |
| GUGCCUUGCGCCGGGAAACCACGCAAGGGAUGGUGUCAAAUUCGGCGAAACCUAAGCGCCCGCCCGGGCGUAUGGCAACGCUGAGCCAAGCUUCGGCGCCUGCGCCGAUGGAGGUGUAGCGACUAGACGGCACCCACCUAAGGCAAACGUUAUGGUGAAGGCAUAGUCAAGGGAGGGGCGAAAGUCACACAAACCGG | 0.00397 |
| GUGCCUUGCGCCGGGAAACCACGCAAGGGAUGGUGUCAAAUUCGGCGAAACCUAAGCGCCCGCCCGGGCGUAUGGCAACGCUGAGCCAAGCUUCGGCGCCUGCGCCGAUGGAGGUGUAGCGACUAGACGGCACCCACCUAAGGCAAACGCUAUGGUGAAGGCAUAGUCAAGGGAGAGGCGAAAGUCACACAAACCGG | 0.014 |
| GUGCCUUGCGCCGGGAAACCACGCAAGGGAUGGUGUCAAAUUCGGCGAAACCUAAGCGCCCGCCCGGGCGUAUGGCAACGCUGAGCCAAGCUUCGGCGCCUGCGCCGAUGGAGGUGUAGCGACUAGACGGCACCCACCUAAGGCAAACGCUAUGGUGAAGGCAUAGUCAAGGGAGCGGCGAAAGUCACACAAACCGG | 0.0132 |
| GUGCCUUGCGCCGGGAAACCACGCAAGGGAUGGUGUCAAAUUCGGCGAAACCUAAGCGCCCGCCCGGGCGUAUGGCAACGCUGAGCCAAGCUUCGGCGCCUGCGCCGAUGGAGGUGUAGCGACUAGACGGCACCCACCUAAGGCAAACGUUAUGGUGAAGGCAUAGUCUAGGGAGGGGCGAAAGUCACACAAACCGG | 0.0054 |
| GUGCCUUGCGCCGGGAAACCACGCAAGGGAUGGUGUCAAAUUCGGCGAAACCUAAGCGCCCGCCCGGGCGUAUGGCAACGCUGAGCCAAGCUUCGGCGCCUGCGCCGAUGGAGGUGUAGCGACUAGACGGCACCCACCUAAGGCAAACGUUAUGGUGAAGGCAUAGUCUAGGGAGAGGCGAAAGUCACACAAACCGG | 0.0154 |
| GUGCCUUGCGCCGGGAAACCACGCAAGGGAUGGUGUCAAAUUCGGCGAAACCUAAGCGCCCGCCCGGGCGUAUGGCAACGCUGAGCCAAGCUUCGGCGCCUGCGCCGAUGGAGGUGUAGCGACUAGACGGCACCCACCUAAGGCAAACGUUAUGGUGAAGGCAUAGUCUAGGGAGCGGCGAAAGUCACACAAACCGG | 0.0151 |
| GUGCCUUGCGCCGGGAAACCACGCAAGGGAUGGUGUCAAAUUCGGCGAAACCUAAGCGCCCGCCCGGGCGUAUGGCAACGCUGAGCCAAGCUUCGGCGCCUGCGCCGAUGGAGGUGUAGCGACUAGACGGCACCCACCUAAGGCAAACGUUAUGGUGAAGGCAUAGUCAAGGGAGUGGCGAAAGUCACACAAACCGG | 0.00965 |
| GUGCCUUGCGCCGGGAAACCACGCAAGGGAUGGUGUCAAAUUCGGCGAAACCUAAGCGCCCGCCCGGGCGUAUGGCAACGCUGAGCCAAGCUUCGGCGCCUGCGCCGAUGGAGGUGUAGCGACUAGACGGCACCCACCUAAGGCAAACGUUAUGGUGAAGGCAUAGUCUAGGGAGUGGCGAAAGUCACACAAACCGG | 0.0124 |
| GUGCCUUGCGCCGGGAAACCACGCAAGGGAUGGUGUCAAAUUCGGCGAAACCUAAGCGCCCGCCCGGGCGUAUGGCAACGCUGAGCCAAGCUUCGGCGCCUGCGCCGAUGGAGGUGUAGCGACUAGACGGCACCCACCUAAGGCAAACGUUAUGGUGAAGGCAUAGUCGAGGGAGUGGCGAAAGUCACACAAACCGG | 0.00986 |
| GUGCCUUGCGCCGGGAAACCACGCAAGGGAUGGUGUCAAAUUCGGCGAAACCUAAGCGCCCGCCCGGGCGUAUGGCAACGCUGAGCCAAGCUUCGGCGCCUGCGCCGAUGGAGGUGUAGCGACUAGACGGCACCCACCUAAGGCAAACGGUAUGGUGAAGGCAUAGUCUAGGGAGGGGCGAAAGUCACACAAACCGG | 0.00489 |
| GUGCCUUGCGCCGGGAAACCACGCAAGGGAUGGUGUCAAAUUCGGCGAAACCUAAGCGCCCGCCCGGGCGUAUGGCAACGCUGAGCCAAGCUUCGGCGCCUGCGCCGAUGGAGGUGUAGCGACUAGACGGCACCCACCUAAGGCAAACGGUAUGGUGAAGGCAUAGUCUAGGGAGCGGCGAAAGUCACACAAACCGG | 0.0138 |
| GUGCCUUGCGCCGGGAAACCACGCAAGGGAUGGUGUCAAAUUCGGCGAAACCUAAGCGCCCGCCCGGGCGUAUGGCAACGCUGAGCCAAGCUUCGGCGCCUGCGCCGAUGGAGGUGUAGCGACUAGACGGCACCCACCUAAGGCAAACGGUAUGGUGAAGGCAUAGUCUAGGGAGAGGCGAAAGUCACACAAACCGG | 0.00617 |
| GUGCCUUGCGCCGGGAAACCACGCAAGGGAUGGUGUCAAAUUCGGCGAAACCUAAGCGCCCGCCCGGGCGUAUGGCAACGCUGAGCCAAGCUUCGGCGCCUGCGCCGAUGGAGGUGUAGCGACUAGACGGCACCCACCUAAGGCAAACGUUAUGGUGAAGGCAUAGUCCAGGGAGUGGCGAAAGUCACACAAACCGG | 0.0325 |

— the RNAGym collection of RNA variant scans (doi:10.1093/molbev/msab373)
